# Experimental data reported in patent publication US8822171.
# System: recombinant human tau, largest isoform (2N4R)
Substance,"New sites identified in recombinant tau (phosphorylated residues, numbered on 441-residue human tau)","in vitro phosphorylation of recombinant tau, sites identified by LC/MS/MS"
casein kinase 2 (CK2),"(52/56), 199, 386, 400, (412/413/414/416, 1 site)",CK2 found 5 new sites making a total of 8 in all.
cyclic AMP-dependent protein kinase (PKA),"210, (217/220), 258, 352, (412/413)",PKA found 5 new sites making a total of 24 in all.
glycogen synthase kinase 3β (GSK-3β),"149, 220, 237, 241, 245, 258, 285, 289, 305, 352, 373, (409/412/413/414/416, 2 sites of which 1 or 2 are new)",GSK-3 found 12 new sites making a total of 38 in all.
